Reference: patent US20160151487A1 (Hoffmann-La Roche, published 2016)
Residue numbers refer to the chain shown, from its start. Names may count otherwise.

B1: <IGF-1R> IgG1 with M252Y, S254T, T256E (antibody)
light: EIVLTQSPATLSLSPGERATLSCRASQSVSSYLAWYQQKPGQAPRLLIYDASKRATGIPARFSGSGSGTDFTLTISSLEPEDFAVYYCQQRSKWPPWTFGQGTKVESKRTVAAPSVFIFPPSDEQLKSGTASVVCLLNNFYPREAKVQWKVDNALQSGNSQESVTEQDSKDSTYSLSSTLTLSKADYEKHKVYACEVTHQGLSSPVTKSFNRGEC
heavy: QVELVESGGGVVQPGRSQRLSCAASGFTFSSYGMHWVRQAPGKGLEWVAIIWFDGSSTYYADSVRGRFTISRDNSKNTLYLQMNSLRAEDTAVYFCARELGRRYFDLWGRGTLVSVSSASTKGPSVFPLAPSSKSTSGGTAALGCLVKDYFPEPVTVSWNSGALTSGVHTFPAVLQSSGLYSLSSVVTVPSSSLGTQTYICNVNHKPSNTKVDKKVEPKSCDKTHTCPPCPAPELLGGPSVFLFPPKPKDTLYITREPEVTCVVVDVSHEDPEVKFNWYVDGVEVHNAKTKPREEQYNSTYRVVSVLTVLHQDWLNGKEYKCKVSNKALPAPIEKTISKAKGQPREPQVYTLPPSRDELTKNQVSLTCLVKGFYPSDIAVEWESNGQPENNYKTTPPVLDSDGSFFLYSKLTVDKSRWQQGNVFSCSVMHEALHNHYTQKSLSLSPG
notes: also called YTE-mutant of anti-IGF-1R antibody
B2: <IGF-1R> IgG1 knob wt, hole H310A, H433A, Y436A (antibody)
light: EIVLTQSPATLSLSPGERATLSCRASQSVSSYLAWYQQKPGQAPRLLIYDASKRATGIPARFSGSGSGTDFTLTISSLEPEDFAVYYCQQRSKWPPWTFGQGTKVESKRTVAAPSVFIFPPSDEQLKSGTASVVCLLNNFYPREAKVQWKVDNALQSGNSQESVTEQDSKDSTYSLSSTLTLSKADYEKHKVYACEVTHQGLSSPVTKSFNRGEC
heavy 1: not shown
heavy 2: QVELVESGGGVVQPGRSQRLSCAASGFTFSSYGMHWVRQAPGKGLEWVAIIWFDGSSTYYADSVRGRFTISRDNSKNTLYLQMNSLRAEDTAVYFCARELGRRYFDLWGRGTLVSVSSASTKGPSVFPLAPSSKSTSGGTAALGCLVKDYFPEPVTVSWNSGALTSGVHTFPAVLQSSGLYSLSSVVTVPSSSLGTQTYICNVNHKPSNTKVDKKVEPKSCDKTHTCPPCPAPELLGGPSVFLFPPKPKDTLMISRTPEVTCVVVDVSHEDPEVKFNWYVDGVEVHNAKTKPREEQYNSTYRVVSVLTVLAQDWLNGKEYKCKVSNKALPAPIEKTISKAKGQPREPQVCTLPPSRDELTKNQVSLSCAVKGFYPSDIAVEWESNGQPENNYKTTPPVLDSDGSFFLVSKLTVDKSRWQQGNVFSCSVMHEALANHATQKSLSLSPGK
notes: also called IGF-1R 0035; anti-IGF-1R antibody (knobs-into-holes), one chain with H310A/H433A/Y436A
B3: <IgF-1R> IgG1 knob wt, hole I253A, H310A, H435A (antibody)
light: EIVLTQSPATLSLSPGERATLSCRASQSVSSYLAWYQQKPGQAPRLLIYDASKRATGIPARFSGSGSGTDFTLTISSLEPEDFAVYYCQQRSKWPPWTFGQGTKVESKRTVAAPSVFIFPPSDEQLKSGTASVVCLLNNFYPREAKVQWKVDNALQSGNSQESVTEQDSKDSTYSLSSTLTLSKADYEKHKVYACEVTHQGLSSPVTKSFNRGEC
heavy 1: not shown
heavy 2: B2 heavy 2 with I254A, A434H, H436A, A437Y
notes: T0033 lists L234A/L235A/P329G for IGF-1R 0034; also called IGF-1R 0034; anti-IGF-1R antibody (knobs-into-holes), one chain with I253A/H310A/H435A
B4: <IGF-1R> IgG1 knob wt, hole M252Y, S254T, T256E (antibody)
light: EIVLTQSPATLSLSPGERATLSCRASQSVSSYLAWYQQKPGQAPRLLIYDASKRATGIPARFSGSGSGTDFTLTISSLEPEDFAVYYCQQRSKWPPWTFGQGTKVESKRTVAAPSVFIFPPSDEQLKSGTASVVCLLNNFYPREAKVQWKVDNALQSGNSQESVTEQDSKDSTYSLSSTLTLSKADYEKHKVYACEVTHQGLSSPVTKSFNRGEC
heavy 1: not shown
heavy 2: B2 heavy 2 with M253Y, S255T, T257E, A311H, A434H, A437Y
notes: T0033 lists L234A/L235A/P329G for IGF-1R 0036; also called IGF-1R 0036; anti-IGF-1R antibody (knobs-into-holes), one chain with M252Y/S254T/T256E
B5: <IGF-1R> IgG1 knob wt, hole L251D, L314D, L432D (antibody)
light: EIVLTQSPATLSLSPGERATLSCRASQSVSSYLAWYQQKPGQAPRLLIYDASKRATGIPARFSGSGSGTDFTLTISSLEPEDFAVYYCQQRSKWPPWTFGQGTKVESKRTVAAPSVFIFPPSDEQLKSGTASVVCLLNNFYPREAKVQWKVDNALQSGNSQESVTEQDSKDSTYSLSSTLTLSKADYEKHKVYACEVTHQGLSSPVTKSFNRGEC
heavy 1: not shown
heavy 2: B2 heavy 2 with L252D, A311H, L315D, L433D, A434H, A437Y
notes: T0033 lists L234A/L235A/P329G for IGF-1R 0037; also called IGF-1R 0037; anti-IGF-1R antibody (knobs-into-holes), one chain with L251D/L314D/L432D

Assays:
[1] = molecular target: T1, human neonatal Fc-receptor (FcRn), soluble extracellular domain with His-Avi Tag, co-expressed with … (human, UniProt P55899 24-297; P61769 21-119, biotinylated (Avi Tag) for the affinity column); test: SPR (BIAcore T100), FcRn immobilized on CM5 chip by amine coupling (400 RU), 200 nM antibody injected, PBS 0.05% Tween-20 pH 6.0, room temperature
T1 construct: SPR: amine-coupled to a CM5 chip (400 RU), pH 6.0; also called huFcRn; FcRn/beta2-microglobulin
T1 sequence (P55899 24-297 limits assumed, chain 1 of 2): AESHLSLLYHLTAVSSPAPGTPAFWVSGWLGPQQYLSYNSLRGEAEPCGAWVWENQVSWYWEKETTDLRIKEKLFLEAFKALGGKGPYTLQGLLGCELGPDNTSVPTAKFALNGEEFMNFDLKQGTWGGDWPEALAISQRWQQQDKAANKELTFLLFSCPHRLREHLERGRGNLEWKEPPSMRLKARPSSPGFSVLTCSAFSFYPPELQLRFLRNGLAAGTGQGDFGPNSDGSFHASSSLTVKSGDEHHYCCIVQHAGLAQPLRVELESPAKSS
T1 sequence (P61769 21-119 limits assumed, chain 2 of 2): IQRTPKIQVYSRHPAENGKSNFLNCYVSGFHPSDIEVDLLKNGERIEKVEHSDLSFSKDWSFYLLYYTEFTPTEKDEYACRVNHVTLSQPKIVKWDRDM
Method: The binding properties of wild-type antibody and the mutants to FcRn were analyzed by surface plasmon resonance (SPR) technology using a BIAcore T100 instrument (BIAcore AB, Uppsala, Sweden). […] In the current assay, the FcRn receptor was immobilized onto a BIAcore CM5-biosensor chip (GE Healthcare Bioscience, Uppsala, Sweden) via amine coupling to a level of 400 Response units (RU). The assay was carried out at room temperature with PBS, 0.05% Tween-20TM pH 6.0 (GE Healthcare Bioscience) as running and dilution buffer. 200 nM of antibody samples were injected at a flow rate of 50 μL/min at room temperature. Association time was 180 seconds, dissociation phase took 360 seconds. Regeneration of the chip surface was reached by a short injection of HBS-P, pH 8.0. Evaluation of SPR-data was performed by comparison of the biological response signal height at 180 seconds after injection and at 300 seconds after injection. The corresponding parameters are the RU max level (180 seconds after injection) and late stability (300 seconds after end of injection).

[2] = molecular target: T1, human neonatal Fc-receptor (FcRn), …; test: FcRn affinity chromatography
Method: Antibody samples containing 50 to 100 μg of protein were adjusted to pH 5.5 and applied to the FcRn column using ÄKTA explorer 10 XT or Dionex Summit (Dionex, Idstein, Germany). The column with 5 cm bed height was then washed with 5-10 column volumes of equilibration buffer 20 mM MES, 150 mM NaCl, pH 5.5. […] For complete elution of modified antibodies, the pH was increased in the gradient up to pH 8.8. The experiments were carried out at room temperature. The elution profile was obtained by continuous measurement of the absorbance at 280 nm. The time taken for an analyte peak, X, to reach the detector after sample injection was called the retention time.

Binder | binding result [1] | retention time on FcRn affinity column [2] [min]
B1 | binds | –
B2 | – | 42.4
B3 | – | 42
B4 | – | 57.6
B5 | – | 40.9
